Assay results published in paper PMC5382584, “In search of tail-anchored protein machinery in plants: reevaluating the role of arsenite transporters” (Scientific Reports, 2017).
Where “and” joins values, the source holds several entries; their conditions need not be identical. Identical values can stand only once.

Molecular target: the molecule itself
Assay: SEC; preparative size-exclusion chromatography of the purified protein, Superdex-200-16/600GL column; oligomeric state from peak positions

B1: Cr-ArsA2 (C. reinhardtii ArsA2), recombinant, purified (natural protein, UniProt A8IXB8 1-362, looked up)
chain: MAADMPDPTLQNVVDQKELKWIFVGGKGGVGKTTTSSSLAVALAESGTRNRVLIISTDPAHNLSDAFRQKFTKTPTLVNGFTNLFAMEVDPQPDIGEMEQLEWAQDSFLTELAGSIPGIDEAMSFAEVMKQVQTMDYDTIVFDTAPTGHTLRLLNFPTILEKGLSKLVALKGAMGGMMGQVTRMLGGMAGGGEGAADLPDQLLGKVEGMLDVVRKVSAQFKDPLLTTFVAVCIPEFLSLYETERLVQELAKFEIDCRNIVINQIIFPESVGGSRLLDARVRMQQKYLDQFYELYEDFHILQLPLLEEEVRGPEALKAFAVNLLKPYVPAPPTDAAARQAALVSEVAALKKRVAELEAALAKK
notes: ArsA2 of Chlamydomonas reinhardtii, full-length open reading frame, one ATPase domain; pET21 modified with a TEV site between the N-terminal 6His-tag and the polylinker; Seen as dimers and tetramers; also called Dimeric Cr-ArsA2; arsenite transporter ArsA2; source: E. coli BL21 (DE3), purified (Ni-NTA, size-exclusion chromatography)
Question: B1 was tested. Which “stoichiometry N” value did it give?
Answer: The value was 2 and 4.
